The labels stand for the following.
B1: EF-hand domain-containing protein 1 (Homo sapiens), Q5JVL4 (parent)
chain: MVSNPVHGLPFLPGTSFKDSTKTAFHRSQTLSYRNGYAIVRRPTVGIGGDRLQFNQLSQAELDELASKAPVLTYGQPKQAPPADFIPAHVAFDKKVLKFDAYFQEDVPMSTEEQYRIRQVNIYYYLEDDSMSVIEPVVENSGILQGKLIKRQRLAKNDRGDHYHWKDLNRGINITIYGKTFRVVDCDQFTQVFLESQGIELNPPEKMALDPYTELRKQPLRKYVTPSDFDQLKQFLTFDKQVLRFYAIWDDTDSMYGECRTYIIHYYLMDDTVEIREVHERNDGRDPFPLLMNRQRVPKVLVENAKNFPQCVLEISDQEVLEWYTAKDFIVGKSLTILGRTFFIYDCDPFTRRYYKEKFGITDLPRIDVSKREPPPVKQELPPYNGFGLVEDSAQNCFALIPKAPKKDVIKMLVNDNKVLRYLAVLESPIPEDKDRRFVFSYFLATDMISIFEPPVRNSGIIGGKYLGRTKVVKPYSTVDNPVYYGPSDFFIGAVIEVFGHRFIILDTDEYVLKYMESNAAQYSPEALASIQNHVRKREAPAPEAESKQTEKDPGVQELEALIDTIQKQLKDHSCKDNIREAFQIYDKEASGYVDRDMFFKICESLNVPVDDSLVKELIRMCSHGEGKINYYNFVRAFSN
partner: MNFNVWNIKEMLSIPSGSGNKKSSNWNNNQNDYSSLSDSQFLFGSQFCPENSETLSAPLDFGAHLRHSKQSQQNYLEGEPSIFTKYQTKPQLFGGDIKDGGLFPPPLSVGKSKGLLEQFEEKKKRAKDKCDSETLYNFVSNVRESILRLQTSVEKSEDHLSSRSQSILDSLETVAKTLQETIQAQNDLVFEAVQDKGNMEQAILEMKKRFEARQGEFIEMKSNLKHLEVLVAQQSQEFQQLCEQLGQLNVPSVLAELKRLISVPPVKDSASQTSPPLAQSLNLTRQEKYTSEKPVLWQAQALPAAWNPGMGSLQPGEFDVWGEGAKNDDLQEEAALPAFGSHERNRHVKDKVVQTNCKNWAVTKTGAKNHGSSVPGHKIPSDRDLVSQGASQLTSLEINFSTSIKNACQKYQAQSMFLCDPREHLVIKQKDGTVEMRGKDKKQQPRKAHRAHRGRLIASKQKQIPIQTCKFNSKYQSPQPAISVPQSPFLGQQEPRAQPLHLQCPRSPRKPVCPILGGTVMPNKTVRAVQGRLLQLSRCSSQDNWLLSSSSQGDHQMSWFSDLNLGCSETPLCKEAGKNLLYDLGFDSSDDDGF
B2: EF-hand domain-containing protein 1 (Homo sapiens), Q5JVL4 (parent)
chain: B1 chain
partner: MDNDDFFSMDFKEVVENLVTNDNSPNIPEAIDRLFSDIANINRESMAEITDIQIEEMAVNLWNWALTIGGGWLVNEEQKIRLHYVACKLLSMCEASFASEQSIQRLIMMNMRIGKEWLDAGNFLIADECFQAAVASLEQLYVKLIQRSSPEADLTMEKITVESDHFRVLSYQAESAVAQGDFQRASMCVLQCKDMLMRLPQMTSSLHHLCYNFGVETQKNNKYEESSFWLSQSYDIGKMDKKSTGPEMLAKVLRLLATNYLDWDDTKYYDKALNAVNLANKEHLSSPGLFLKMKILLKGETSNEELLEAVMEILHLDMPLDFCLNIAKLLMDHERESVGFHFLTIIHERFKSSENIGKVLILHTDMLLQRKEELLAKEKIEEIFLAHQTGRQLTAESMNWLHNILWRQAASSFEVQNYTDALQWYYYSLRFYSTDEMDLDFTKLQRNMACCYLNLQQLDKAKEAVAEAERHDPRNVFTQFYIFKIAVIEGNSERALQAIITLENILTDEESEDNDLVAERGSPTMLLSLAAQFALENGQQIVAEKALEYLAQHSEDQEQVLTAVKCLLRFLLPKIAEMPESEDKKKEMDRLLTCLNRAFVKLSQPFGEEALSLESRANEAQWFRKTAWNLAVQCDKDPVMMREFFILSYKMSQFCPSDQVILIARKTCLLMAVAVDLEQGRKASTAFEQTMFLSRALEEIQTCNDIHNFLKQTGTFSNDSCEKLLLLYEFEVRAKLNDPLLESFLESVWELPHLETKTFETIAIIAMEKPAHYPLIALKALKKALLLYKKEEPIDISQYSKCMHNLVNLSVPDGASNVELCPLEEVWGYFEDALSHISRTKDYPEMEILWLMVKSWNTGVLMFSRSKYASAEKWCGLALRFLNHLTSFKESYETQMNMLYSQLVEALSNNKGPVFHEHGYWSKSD
B3: EF-hand domain-containing protein 1 (Homo sapiens), Q5JVL4 (parent)
chain: B1 chain
partner: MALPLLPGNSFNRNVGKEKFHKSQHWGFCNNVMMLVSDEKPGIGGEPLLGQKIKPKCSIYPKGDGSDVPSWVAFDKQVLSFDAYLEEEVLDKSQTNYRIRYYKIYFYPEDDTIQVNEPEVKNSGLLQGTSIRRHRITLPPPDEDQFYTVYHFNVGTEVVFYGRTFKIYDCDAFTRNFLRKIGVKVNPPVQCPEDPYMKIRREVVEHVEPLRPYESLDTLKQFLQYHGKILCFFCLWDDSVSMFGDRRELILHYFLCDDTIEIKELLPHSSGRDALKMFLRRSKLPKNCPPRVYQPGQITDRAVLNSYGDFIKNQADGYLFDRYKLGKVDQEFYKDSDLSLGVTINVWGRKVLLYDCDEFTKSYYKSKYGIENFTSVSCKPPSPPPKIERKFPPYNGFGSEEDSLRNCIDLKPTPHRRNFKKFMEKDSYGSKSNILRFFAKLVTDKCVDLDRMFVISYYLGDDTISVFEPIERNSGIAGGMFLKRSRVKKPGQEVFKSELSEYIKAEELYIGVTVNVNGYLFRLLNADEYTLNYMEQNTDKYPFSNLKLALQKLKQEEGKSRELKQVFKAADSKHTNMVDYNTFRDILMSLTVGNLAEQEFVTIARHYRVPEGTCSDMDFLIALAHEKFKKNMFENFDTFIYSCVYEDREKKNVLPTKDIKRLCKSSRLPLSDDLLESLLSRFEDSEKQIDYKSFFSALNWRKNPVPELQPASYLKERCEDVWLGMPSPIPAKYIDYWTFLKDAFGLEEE
B4: PiggyBac transposable element-derived protein 1 (Homo sapiens), Q96JS3 (parent)
chain: MYEALPGPAPENEDGLVKVKEEDPTWEQVCNSQEGSSHTQEICRLRFRHFCYQEAHGPQEALAQLRELCHQWLRPEMHTKEQIMELLVLEQFLTILPKELQPCVKTYPLESGEEAVTVLENLETGSGDTGQQASVYIQGQDMHPMVAEYQGVSLECQSLQLLPGITTLKCEPPQRPQGNPQEVSGPVPHGSAHLQEKNPRDKAVVPVFNPVRSQTLVKTEEETAQAVAAEKWSHLSLTRRNLCGNSAQETVMSLSPMTEEIVTKDRLFKAKQETSEEMEQSGEASGKPNRECAPQIPCSTPIATERTVAHLNTLKDRHPGDLWARMHISSLEYAAGDITRKGRKKDKARVSELLQGLSFSGDSDVEKDNEPEIQPAQKKLKVSCFPEKSWTKRDIKPNFPSWSALDSGLLNLKSEKLNPVELFELFFDDETFNLIVNETNNYASQKNVSLEVTVQEMRCVFGVLLLSGFMRHPRREMYWEVSDTDQNLVRDAIRRDRFELIFSNLHFADNGHLDQKDKFTKLRPLIKQMNKNFLLYAPLEEYYCFDKSMCECFDSDQFLNGKPIRIGYKIWCGTTTQGYLVWFEPYQEESTMKVDEDPDLGLGGNLVMNFADVLLERGQYPYHLCFDSFFTSVKLLSALKKKGVRATGTIRENRTEKCPLMNVEHMKKMKRGYFDFRIEENNEIILCRWYGDGIISLCSNAVGIEPVNEVSCCDADNEEIPQISQPSIVKVYDECKEGVAKMDQIISKYRVRIRSKKWYSILVSYMIDVAMNNAWQLHRACNPGASLDPLDFRRFVAHFYLEHNAHLSD

The values that follow come from IntAct's records for PubMed 25910212.

In the first experiment the parent is B1. The settings on record: with iho1_human IHO1, Q8IYA8.
For R221H, the “effect of a mutation on the interaction” value was “disrupting interaction strength”.

In the next experiment the parent is B2. The settings on record: with TEX11, Q8IYF3-3.
As for R221H, the “effect of a mutation on the interaction” value is listed as “disrupting interaction strength”.

As to M448T, the “effect of a mutation on the interaction” value is on record as “with no effect”.

Turning to R159W, the “effect of a mutation on the interaction” value is “with no effect”.

As to A394S, the “effect of a mutation on the interaction” value was “disrupting interaction strength”.

On to P77T, for which the “effect of a mutation on the interaction” value is recorded as “with no effect”.

Take T508R: the “effect of a mutation on the interaction” value is “with no effect”.

In another experiment the parent is B3. The settings on record: with efhc2_human EFHC2, Q5JST6.
On to R159W, for which the “effect of a mutation on the interaction” value is on record as “with no effect”.

In the case of T508R, the “effect of a mutation on the interaction” value is recorded as “with no effect”.

Take P77T: the “effect of a mutation on the interaction” value is recorded as “disrupting interaction strength”.

Regarding R221H, the “effect of a mutation on the interaction” value is “disrupting interaction strength”.

As for A394S, the “effect of a mutation on the interaction” value is on record as “disrupting interaction strength”.

As to M448T, the “effect of a mutation on the interaction” value is recorded as “with no effect”.

The variants in another experiment derive from B4. The settings on record: with NR4A1, P22736-2.
Sequence of NR4A1, P22736-2 (P22736 other isoform, or with tags, fused parts or gaps): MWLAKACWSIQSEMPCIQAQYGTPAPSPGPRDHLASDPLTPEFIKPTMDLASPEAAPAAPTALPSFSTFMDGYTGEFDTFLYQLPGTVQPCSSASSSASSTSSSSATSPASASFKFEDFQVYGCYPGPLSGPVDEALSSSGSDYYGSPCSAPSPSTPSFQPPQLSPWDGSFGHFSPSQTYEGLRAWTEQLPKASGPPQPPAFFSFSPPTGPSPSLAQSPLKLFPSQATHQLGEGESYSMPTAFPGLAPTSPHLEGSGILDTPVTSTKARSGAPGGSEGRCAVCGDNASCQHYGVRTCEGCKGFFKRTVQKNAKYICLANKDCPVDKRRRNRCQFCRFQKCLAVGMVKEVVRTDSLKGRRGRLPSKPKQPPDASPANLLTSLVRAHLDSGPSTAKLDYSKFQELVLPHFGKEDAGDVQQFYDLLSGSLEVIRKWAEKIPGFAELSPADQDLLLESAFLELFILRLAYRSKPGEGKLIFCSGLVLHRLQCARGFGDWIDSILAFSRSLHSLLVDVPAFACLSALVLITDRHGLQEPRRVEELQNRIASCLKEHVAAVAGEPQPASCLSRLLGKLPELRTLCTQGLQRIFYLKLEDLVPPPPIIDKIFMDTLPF
Consider G244E, for which the “effect of a mutation on the interaction” value is “with no effect”.

With I678V, the “effect of a mutation on the interaction” value was “with no effect”.

The next experiment covers variants of B4. The settings on record: with znf24_human ZNF24, P17028.
Sequence of znf24_human ZNF24, P17028 (P17028 whole entry): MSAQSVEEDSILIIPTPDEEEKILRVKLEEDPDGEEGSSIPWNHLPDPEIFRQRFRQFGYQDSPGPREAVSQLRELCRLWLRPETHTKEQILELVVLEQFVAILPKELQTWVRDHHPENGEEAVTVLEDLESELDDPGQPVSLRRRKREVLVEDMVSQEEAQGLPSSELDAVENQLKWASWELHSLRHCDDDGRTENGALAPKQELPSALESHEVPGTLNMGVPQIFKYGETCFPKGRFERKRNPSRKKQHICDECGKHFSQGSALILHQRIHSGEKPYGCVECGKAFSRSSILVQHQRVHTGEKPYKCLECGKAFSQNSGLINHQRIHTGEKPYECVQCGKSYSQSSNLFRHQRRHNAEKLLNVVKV
For G244E, the “effect of a mutation on the interaction” value is on record as “with no effect”.

As to I678V, the “effect of a mutation on the interaction” value is “with no effect”.

In the next experiment the parent is B4. The settings on record: with zn496_human ZNF496, Q96IT1.
Sequence of zn496_human ZNF496, Q96IT1 (Q96IT1 whole entry): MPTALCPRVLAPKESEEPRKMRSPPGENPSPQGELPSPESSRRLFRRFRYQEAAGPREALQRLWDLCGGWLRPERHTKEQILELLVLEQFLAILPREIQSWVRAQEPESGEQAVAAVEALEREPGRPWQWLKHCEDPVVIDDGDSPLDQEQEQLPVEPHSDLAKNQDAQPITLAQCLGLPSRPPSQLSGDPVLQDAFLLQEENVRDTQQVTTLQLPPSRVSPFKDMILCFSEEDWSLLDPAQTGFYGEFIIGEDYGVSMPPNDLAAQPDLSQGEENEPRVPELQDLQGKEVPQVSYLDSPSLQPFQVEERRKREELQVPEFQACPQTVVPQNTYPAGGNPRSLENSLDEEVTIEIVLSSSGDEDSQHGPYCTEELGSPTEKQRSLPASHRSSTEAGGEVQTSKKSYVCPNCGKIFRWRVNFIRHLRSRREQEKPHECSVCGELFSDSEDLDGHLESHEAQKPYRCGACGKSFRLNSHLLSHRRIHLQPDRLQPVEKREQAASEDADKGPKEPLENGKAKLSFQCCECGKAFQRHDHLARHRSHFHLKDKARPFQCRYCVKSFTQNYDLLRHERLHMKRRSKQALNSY
As to G244E, the “effect of a mutation on the interaction” value is “with no effect”.

In the case of I678V, the “effect of a mutation on the interaction” value is “with no effect”.

Another experiment covers variants of B4. The settings on record: with zsc22_human ZSCAN22, P10073.
Sequence of zsc22_human ZSCAN22, P10073 (P10073 whole entry): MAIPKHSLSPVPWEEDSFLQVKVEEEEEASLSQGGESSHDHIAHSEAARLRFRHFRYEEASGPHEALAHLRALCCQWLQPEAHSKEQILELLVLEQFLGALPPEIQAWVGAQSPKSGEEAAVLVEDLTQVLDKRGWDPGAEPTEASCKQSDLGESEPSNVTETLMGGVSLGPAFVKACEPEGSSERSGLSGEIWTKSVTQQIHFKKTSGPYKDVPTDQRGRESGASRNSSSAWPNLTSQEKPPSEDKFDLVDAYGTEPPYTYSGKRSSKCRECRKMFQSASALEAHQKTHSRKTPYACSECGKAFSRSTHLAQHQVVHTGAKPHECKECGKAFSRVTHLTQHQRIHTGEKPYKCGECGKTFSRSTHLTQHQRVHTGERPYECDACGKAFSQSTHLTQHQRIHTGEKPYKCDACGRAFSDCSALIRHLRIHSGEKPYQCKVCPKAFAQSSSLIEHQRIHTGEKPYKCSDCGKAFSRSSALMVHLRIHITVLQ
For G244E, the “effect of a mutation on the interaction” value was “with no effect”.

In the case of I678V, the “effect of a mutation on the interaction” value is given as “with no effect”.

The variants in a further experiment derive from B4. The settings on record: with meox2_human MEOX2, P50222.
Sequence of meox2_human MEOX2, P50222 (P50222 whole entry): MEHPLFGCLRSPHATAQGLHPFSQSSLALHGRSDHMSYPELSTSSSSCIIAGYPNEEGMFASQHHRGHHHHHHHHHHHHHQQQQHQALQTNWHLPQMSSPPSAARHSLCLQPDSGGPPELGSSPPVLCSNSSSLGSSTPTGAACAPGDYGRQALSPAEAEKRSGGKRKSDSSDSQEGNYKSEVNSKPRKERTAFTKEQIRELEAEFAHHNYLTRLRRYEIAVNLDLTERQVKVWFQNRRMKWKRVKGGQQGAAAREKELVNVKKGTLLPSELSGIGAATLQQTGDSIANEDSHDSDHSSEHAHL
For G244E, the “effect of a mutation on the interaction” value is recorded as “with no effect”.

Regarding I678V, the “effect of a mutation on the interaction” value is given as “with no effect”.
